What all share (test): cell-based or functional assay
The target of assay [1] is T1, OX289-052 (human).
T1 peptide: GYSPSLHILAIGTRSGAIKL

Assay [2] addresses T2, OX1149-290 (human).
T2 peptide: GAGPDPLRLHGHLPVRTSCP

Assay [3] deals with T3, OX289-221 (human).
T3 peptide: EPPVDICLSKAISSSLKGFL

The target in assay [4] is T4, OX993-413 (human).
T4 peptide: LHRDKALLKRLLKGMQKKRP

For assay [5], the target named is T5, OX993-414 (human).
T5 peptide: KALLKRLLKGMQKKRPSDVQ

Assay [6] addresses T6, OX289-075 (human).
T6 peptide: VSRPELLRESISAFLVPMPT

Assay [7] deals with T7, OX289-205 (human).
T7 peptide: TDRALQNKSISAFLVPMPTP

B1: OX289 Peptide 52 clone 2 TCR (TCR, V domains shown)
V domain 1: EDKVVQSPLSLVVHEGDTVTLNCSYEVTNFRSLLWYKQEKKAPTFLFMLTSSGIEKKSGRLSSILDKKELSSILNITATQTGDSAIYLCAVGHFSSRSSGSARQLTFGSGTQLTVLP
V domain 2: DAGVIQSPRHEVTEMGQEVTLRCKPISGHNSLFWYRQTMMRGLELLIYFNNNVPIDDSGMPEDRFSAKMPNASFSTLKIQPSEPRDSAVYFCASSLKVGVDSSYNEQFFGPGTRLTVLE
B1: the “Clone size (percent repertoire), IFNγ+ sorted T cells after peptide stimulation” value (from here on “Clone size (percent repertoire)”) in assay [1] was 10.7 % of repertoire.

B2: OX1149 Peptide 290 clone 2 TCR (TCR, V domains shown)
V domain 1: RGNGKNQVEQSPQSLIILEGKNCTLQCNYTVSPFSNLRWYKQDTGRGPVSLTIMTFSENTKSNGRYTATLDADTKQSSLHITASQLSDSASYICVVTGGANNLFFGTGTRLTVIP
V domain 2: KAGVTQTPRYLIKTRGQQVTLSCSPISGHRSVSWYQQTPGQGLQFLFEYFSETQRNKGNFPGRFSGRQFSNSRSEMNVSTLELGDSALYLCASSEAGEWTQYFGPGTRLTVLE
B2: the “Clone size (percent repertoire)” value in assay [2] was 7 % of repertoire.

B3: OX1149 Peptide 290 clone 1 TCR (TCR, V domains shown)
V domain 1: GENVEQHPSTLSVQEGDSAVIKCTYSDSASNYFPWYKQELGKRPQLIIDIRSNVGEKKDQRIAVTLNKTAKHFSLHITETQPEDSAVYFCAASIATDKLIFGTGTRLQVFP
V domain 2: KAGVTQTPRYLIKTRGQQVTLSCSPISGHRSVSWYQQTPGQGLQFLFEYFSETQRNKGNFPGRFSGRQFSNSRSEMNVSTLELGDSALYLCASSWRGQGEGYTFGSGTRLTVVE
For B3, in assay [2], the “Clone size (percent repertoire)” value was 20.4 % of repertoire.

B4: OX289 Peptide 221 clone 1 TCR (TCR, V domains shown)
V domain 1: SLAKTTQPISMDSYEGQEVNITCSHNNIATNDYITWYQQFPSQGPRFIIQGYKTKVTNEVASLFIPADRKSSTLSLPRVSLSDTAVYYCLVVPVYNQGGKLIFGQGTELSVKP
V domain 2: KAGVTQTPRYLIKTRGQQVTLSCSPISGHRSVSWYQQTPGQGLQFLFEYFSETQRNKGNFPGRFSGRQFSNSRSEMNVSTLELGDSALYLCASSSGTSGMGETQYFGPGTRLLVLE
On to B4, for which the “Clone size (percent repertoire)” value in assay [3] is 65.4 % of repertoire.

B5: OX289 Peptide 52 clone 1 TCR (TCR)
TCR alpha: AQSVTQPDIHITVSEGASLELRCNYSYGATPYLFWYVQSPGQGLQLLLKYFSGDTLVQGIKGFEAEFKRSQSSFNLRKPSVHWSDAAEYFCAVGAYSSASKIIFGSGTRLSIRPNIQNPDPAVYQLRD
TCR beta 1: EPEVTQTPSHQVTQMGQEVILRCVPISNHLYFYWYRQILGQKVEFLVSFYNNEISEKSEIFDDQFSVERPDGSNFTLKIRSTKLEDSAMYFCASRDRGSGANVLTFGAGSRLTVLEDLKNVFPPEVAVFEPS
TCR beta 2: AVVSQHPSWVICKSGTSVKIECRSLDFQATTMFWYRQFPKQSLMLMATSNEGSKATYEQGVEKDKFLINHASLTLSTLTVTSAHPEDSSFYICSGGWGPNTGELFFGEGSRLTVLEDLKNVFPPEVAVFEPS
For B5, in assay [1], the “Clone size (percent repertoire)” value was 27.3 % of repertoire.

B6: OX993 Peptides 413/414 clone 3 TCR (TCR, V domains shown)
V domain 1: RGEDVEQSLFLSVREGDSSVINCTYTDSSSTYLYWYKQEPGAGLQLLTYIFSNMDMKQDQRLTVLLNKKDKHLSLRIADTQTGDSAIYFCAEKKEGFKTIFGAGTRLFVKA
V domain 2: NAGVTQTPKFQVLKTGQSMTLQCAQDMNHEYMSWYRQDPGMGLRLIHYSVGAGITDQGEVPNGYNVSRSTTEDFPLRLLSAAPSQTSVYFCASQETGVGGELFFGEGSRLTVLE
With B6, the “Clone size (percent repertoire)” value in assay [4] and in assay [5] was 11.6 % of repertoire in each case.

B7: OX1149 Peptide 290 clone 3 TCR (TCR)
TCR alpha 1: GDAKTTQPNSMESNEEEPVHLPCNHSTISGTDYIHWYRQLPSQGPEYVIHGLTSNVNNRMASLAIAEDRKSSTLILHRATLRDAAVYYCILVEGNEKLTFGTGTRLTIIPNIQNPDPAVYQLRD
TCR alpha 2: SQELEQSPQSLIVQEGKNLTINCTSSKTLYGLYWYKQKYGEGLIFLMMLQKGGEEKSHEKITAKLDEKKQQSSLHITASQPSHAGIYLCGADVQGSQGNLIFGKGTKLSVKPNIQNPDPAVYQLRD
TCR beta: EPEVTQTPSHQVTQMGQEVILRCVPISNHLYFYWYRQILGQKVEFLVSFYNNEISEKSEIFDDQFSVERPDGSNFTLKIRSTKLEDSAMYFCASRLGGRTTEAFFGQGTRLTVVEDLNKVFPPEVAVFEPS
B7: the “Clone size (percent repertoire)” value in assay [2] was 4.8 % of repertoire.

B8: OX289 Peptides 75/205 clone 3 TCR (TCR, V domains shown)
V domain 1: NSVTQMEGPVTLSEEAFLTINCTYTATGYPSLFWYVQYPGEGLQLLLKATKADDKGSNKGFEATYRKETTSFHLEKGSVQVSDSAVYFCALRGRNQGGKLIFGQGTELSVKP
V domain 2: GAVVSQHPSRVICKSGTSVKIECRSLDFQATTMFWYRQFPKQSLMLMATSNEGSKATYEQGVEKDKFLINHASLTLSTLTVTSAHPEDSSFYICSARLSSGGGYEQFFGPGTRLTVLE
With B8, the “Clone size (percent repertoire)” value in assay [6] and in assay [7] was 13.9 % of repertoire in each case.

B9: OX993 Peptides 413/414 clone 1 TCR (TCR)
TCR alpha 1: GESVGLHLPTLSVQEGDNSIINCAYSNSASDYFIWYKQESGKGPQFIIDIRSNMDKRQGQRVTVLLNKTVKHLSLQIAATQPGDSAVYFCAEIGSGAGSYQLTFGKGTKLSVIPNIQNPDPAVYQLRD
TCR alpha 2: GESVGLHLPTLSVQEGDNSIINCAYSNSASDYFIWYKQESGKGPQFIIDIRSNMDKRQGQRVTVLLNKTVKHLSLQIAATQPGDSAVYFCAENQGGSSYKLIFGSGTRLLVRPDIQNPDPAVYQLRD
TCR beta: DTGVSQNPRHKITKRGQNVTFRCDPISEHNRLYWYRQTLGQGPEFLTYFQNEAQLEKSRLLSDRFSAERPKGSFSTLEIQRTEQGDSAMYLCASSSQSGVDTEAFFGQGTRLTVVEDLNKVFPPEVAVFEPS
As to B9, the “Clone size (percent repertoire)” value in assay [4] and in assay [5] was 26.7 % of repertoire each time.

B10: OX289 Peptides 75/205 clone 1 TCR (TCR)
TCR alpha 1: NSVTQMEGPVTLSEEAFLTINCTYTATGYPSLFWYVQYPGEGLQLLLKATKADDKGSNKGFEATYRKETTSFHLEKGSVQVSDSAVYFCALRHKAAGNKLTFGGGTRVLVKPNIQNPDPAVYQLRD
TCR alpha 2: QQKEKSDQQQVKQSPQSLIVQKGGISIINCAYENTAFDYFPWYQQFPGKGPALLIAIRPDVSEKKEGRFTISFNKSAKQFSLHIMDSQPGDSATYFCAALFDGGSQGNLIFGKGTKLSVKPNIQNPDPAVYQLRD
TCR beta: AVVSQHPSWVICKSGTSVKIECRSLDFQATTMFWYRQFPKQSLMLMATSNEGSKATYEQGVEKDKFLINHASLTLSTLTVTSAHPEDSSFYICSASGPEKLFFGSGTQLSVLEDLNKVFPPEVAVFEPS
Regarding B10, the “Clone size (percent repertoire)” value in assay [6] and in assay [7] was 42.4 % of repertoire in each case.

B11: OX993 Peptides 413/414 clone 2 TCR (TCR)
TCR alpha: AQSVTQLGSHVSVSEGALVLLRCNYSSSVPPYLFWYVQYPNQGLQLLLKYTTGATLVKGINGFEAEFKKSETSFHLTKPSAHMSDAAEYFCAVSPPAQKLVFGTGTRLLVSPNIQNPDPAVYQLRD
TCR beta 1: NAGVTQTPKFQVLKTGQSMTLQCAQDMNHEYMSWYRQDPGMGLRLIHYSVGAGITDQGEVPNGYNVSRSTTEDFPLRLLSAAPSQTSVYFCASQETGVGGELFFGEGSRLTVLEDLKNVFPPEVAVFEPS
TCR beta 2: NAGVTQTPKFQVLKTGQSMTLQCAQDMNHEYMSWYRQDPGMGLRLIHYSVGAGITDQGEVPNGYNVSRSTTEDFPLRLLSAAPSQTSVYFCASSTTAVVSPLHFGNGTRLTVTEDLNKVFPPEVAVFEPS
As for B11, the “Clone size (percent repertoire)” value in assay [4] and in assay [5] was 13.7 % of repertoire throughout.

Values taken from patent US20250003951A1 (OXFORD UNIVERSITY INNOVATION, published 2025).
